Assay: label from the status in PepcDB records

Protein production, failed:
MAILHSVSYGTSDNTLVFIGSLGSTTDMWLPQLDALHKDFRVIAVDHRGHGLSELIEGTPTVADLAQDVLDTLDDLGVGNFGVIGLSLGGAVAQYLAATSDRVTKAAFMCTAAKFGEPQGWLDRAAACRENGTGSLSEAVIQRWFSPTWLENNPASREHFEAMVAGTPSEGYALCCEALATWDFTDRLGEITVPVLTIAGADDPSTPPATVQIIADGVGGESRAEVLSPAAHVPTVERPNEVNELLAQHFA, MAIMRHGLAASVMGTALAMVVAVLPAGCANGQVGEANRPGTTPPSEIALAPSGLGSYLAARHAEAEGDTEAAAAFYLTALADDPDNLNLLRRAYFFNAVEGKVGEAAELASRLMVSDPTATIAPLVISADLAKRGQMREAATLINGQNRQGLNSFLVPVALAWARAGAGDAGGAMTALDELSKNAGYATLRALHGALLQEQLGNKAKAGELYEAYVKGGERPSLRGVQLAGGFFVRTGQAARARALAADYSQRFPDSLLLDNAVAGFAEGGTPPAPEVGTAKDGMAELYYGTASLLADNDLQTATMFNRLALHLRPDFPLAQLLLGQLLAGQNRHDDAIAAYRGIESHDTLMLAAGLAEAESLRAQGKIDDAVVEFDKLAAHFPSRPDPLIEKGDLLRQDQRFAEAATAYSAAIARMGAPDPRHWAVYFGRGVAYERTDRWPLAEQDFQTALRLNPDQPFVLNYLGYSWLDNGINVDQAKQLIERAVAQRPKDGYIIDSLGWAHFRLGEYAEAVGILERAIHETPDDATINDHLGDAYWMVGRRLEARYQWERALSLADDADLSASIQKKLDTGLSPPSPVVPRSAGRPAERQPTSATP, MAIRLTHLRKPLAYSRSFDVCIPFFRSISSFEAVEKAIKCAVETKEYLRIPELVVSLKEPYQNSTLFSFLSAFQRHHRIRVIDEILQSFVPVRPRSLPKIVYSSLLTYCLQSSDPLPLSFAILQRTLRSGCLPNPQTHLLLSDAWLERRRGSQSVADIINEMKLIGYSPDTGTCNYLVSSLCAVDKLDEAIKVVEEMSAAGCIPDVESYGAVINSLCLARKTTDVVKIVKEMVSKAGISPRKGMLTKVAAALRANREIWKAIEMIEFVESRDYPVEFESYEVVVEGCLEVREYILAGKVVMRMTDRGFIPYIKVRQKVVERLINIGEWKLACTVRQRVSELRS, MAIRRCYIAQNPKSSCRFNCVRERFEDLRGVPCLVYEGETRDWINAALFLEDENESEDRKRFVLHTSHSALLYMEYDLTSNADCTVLELARCTDSSILYYTKLHGSSFNKLAIISGNAFGELLVWQTQFPTESDPKSVMKTYPLLLRIEAHNGVIHSIEFDLQSQLLVTTSDDRSVKFWNIQKSGDWTTAEIKPMFSCYGHSSRVMCVVILKIDDRTFVASGGEDSYVCIWSSSGELILKRRQQFGAPIWRLGFSQDAEILYSTSSTGNLVGQNLKEVLNRPKIESTILSSLGDANEFVRNLKFVNNEIIVGLSSLNRLYYTRISPDSSHENKWLMVNDFPSYKRTVLEVFDDIIATCGHRRITLHRDRYLVSDNLGYCLLLQTHQLHIESHIALFNNREPWITAALLISEQYLLLGNREGHVMLYCRSSASDDFQLKDSIRYLHGKMGSNFFKLLSLNADNAHVMSGGHEAFLKYLSVRFSDSTLRVSQREGIPLAWVEASPSDDLILGFNDNHIVAWSRRNDILLQLACGGGHRCWDFRLSDGDSQLSIAYVKQKRVYFYRNSLYNAVDNRLKDIEPNNWHVRNCNTLRLITPRNQSDPFILSAGDDNIIKVTQVTNDSLSQRAEMHSHISTVRSLQAIPYKSNGGDSSTWLVFSVGGRSQLCISQLSIDASNKCWISEISSHTLHNVAASKTSTIEARLMAIDVVQHSDGDLFSIYVAGGDGNISHYIWELETPNQLDLKHFVDIQRCPLGIQWIASKGMLLVSTTNGEVYGFDRTLETTYFQLQLHVTGINTIDIYVDRHLLHILSGGDDESIKYTVLNLNNNNVEQKIEYLGLHNAQVNALAIHCPTKSVAASELFAYTCSIDRQIYRIDLSTHKYKRVGYTCIADVKGMLLDEHQRMYFYGCGLQTMSISNIL, MAIRSALMNVMLIAVKKAAKGLVRDFGELENLQVSRKGPSDFVSNADLKAEKILKAELRKARPAYSFLMEESGAEDGADTSRRWIVDPLDGTTNFLHGIPHFAISVALEEKGEIVAGVIYNPILDELYTAEKGNGAFVNDRRLRVSGRRDLAESLFATGIPFQGKGGHARFLGQLAKVMAKTSGVRRIGAASLDLAYVAAGRVDGYWEEGLHPWDCAAGILLVKEAGGYVTTLDGKPDPLRQGSLLAANPLMHPLLGELLAEE, MAISIRTMAALSMVGLRGKRDVQQYSEWISQPCRPAMKGFRPGIGPTLVVLLLLPVLVALGFWQLGRGEQKRQLLASYAERRAAEPVALFELLASEDPAFRRVRLHGHFDADHSLLLDNRLHDGKVGVELLQPFLDQASGRWLLVNRGWLPWPDRRTPPVFSTPQQSLSLDAWVYVSPGAAFQLHADPSGASWPRLITAVGPQALWAELGRSGFDHEVRLESGPGAYLTEWPVVAMGPEKHQAYAVQWFAMALALFALYLYFGWHNTREKRHGNGHESTQHL, MAIVGTILFAFYSVAIAAAWFFFGQNQTILAIAIVGSVVLVGVQYKVGKWMALRSVGAEDMDEQEFPRIHRRVESLSRDMGIKKPTLKVANMGVPNAFAVGRKGNGTVVVSRELIDILEHEELDGVLAHELSHIANRDVVTMQLGQGIASIVGIVAQYIVLFSGDNDLADFFLAIVVGNLVQFLVTLFVLAISRYREYVADADARRAIGTGEPLARALEKISQGNEQAAQQQRQRTSRGRGRRQRGQRNDDGLDQQVSALCISSPDTSVLQKLVSTHPPTEKRIQRLRS, MAKAVASQEVANMLNDWYILMKKRDISGSIEMKDDIDKAIEKMEEDHDVLLYYQMLDFRLRLLLEDISQSSTEKLEAISFKDKDPKSTDDKLNYYFYLFKGIYEDYKQNHTEALNFFRIAEKRLSVIQNEIEKAEFHYKIGVLYYNLKATWLSIHHINIASGIFQGYDGYAKRVINCKMLIGLNYIDQFKFAESEVLLKEAIEKTEKIGDQYLLPYTYYNMGFLKSKEDKHEEALKYYNKAFAIKDFETKAKYAYLLCVYENTRSLFKTNDPDQAFKWIDTGFKKAQEVNSEIFELKFKTLYTLHSDCQNKLEVIKDFIHQLEDKKAWVDLEELLMDVANYYRENKLYEEAIYFYIKTDKASKLAGRGGE, MAKEGEHSGAKEVKLTKPKISLSDLTFVIYVTTREKLSSSTISCEEIPLKKCGAELECGSNDRFHIQVENLSHMGISKSRMAGVKIECEVIYKEDSEDEAVVRIVNAERPLGTNFGWLNNDLLAPLAHRGLTAEIQLSFNSELLDKIDLQIFHRGEGRYFSQDDTLGYLQCFFPSKI, MAKIHVLEKHVAELIAAGEVVERPSSVIKELVENSIDAGATTISVEIQRGGIAYMRVTDNGGGIAREDVPKAFLRNATSKVESAEDLDGIGTLGFRGEALASICAVSRVTLLTRTEEELAGTSYQIEGGEELALEDAGCAKGCTIVVRDLFYNTPARMKFLKKDVSEANAVAGVMDRAALSHPEISFRFVRDHKETLSTPGDRQLRSCIYAVYGKDFTAGLIPVDYAYNGIKVRGFISKPSAARPNRSMQHFFINGRFVKSKTAMVALEQAFKGSIMAGKFPSCVLHLSVPWEAVDVNVHPSKIEVRFLNEKPIFDAVYHGVKSALLSGDQRKEMILPRPKLDPPASQPEQIRLAAKPAIGSAAQETAEKEARLLTSQTEQAPNSSLGAYEKVVSSSAGRLAQPQQAPLGKAPDKAFPQTASGPAVAGTSHIGENAADKKPPSSLPGIGAAGRIPVPYEENEPEIYLPVKRQTAIPAVRDFISSPFSFSDEASKPKAAGEAPGDTGFEAAAADRGRKAEPKAQELSEEAAGEKPESSRQAAAAEPPREEAGLQPFGEKRQRLVGEAFRTYLIIEYGDDELLLIDKHAAHERILYEKLKKESGKSCAQYLLEPIPVTLDKNEYAAVLENQKLFWEAGFEVEDFGGGSVLVRSAPLSLEQEDIASSLMEIAGHLLENKTDMSTEKLDWLYHNIACRAAVKAGQITSDQELIALAVALRENPEIRYCPHGRPVSITLKKREIEKQFGRIQ, MAKIVQLPDDLSNKIAAGEVVERPASVVKELVENAIDANSSVIEIDVEEAGLASIKVLDDGEGMDAEDCRTAFLRHATSKIKDENDLFRVRTLGFRGEALPSIASVSHLSIKTSTGEGAGTHLTLQGGRIISEQKAPSRRGTEITVTNLFFNTPARLKYMKTIHTELGNITDVVNRIALAHPEVSIRLRHQGKTLLQTNGNGDVRHVLAAIYGTAVAKKMLPLEARSLDFEVKGYIALPEITRASRNYMSSVVNGRYIKNFPLVKAIHEGYHTLLPIGRHPITFIEINMDPLLVDVNVHPSKLEVRLSKETELHELIRDAIKDVFKQQQLIPSVQVPKKTAPLINKPEQQKLDFDQVREPAPLSDSDVEREYKPEPSFSAMKLSSLVKDPPPSAPVEREENVMQDTEPEWPGAEEYTPEAAPAVQAEPEQAGENVQDEETPKERVPIMYPIGQMHGTYILAQNENGLYIIDQHAAQERIKYEYFREKVGEVESEVQDLLVPLTFHYSKNEALTIDQHLDDLAKVGVFLESFGAGSYIVRCHPTWFPKGEETTIIEDIIQQVLDDRTIDIKKLREEAAIMMSCKGSIKANHHLRDDEITALLDELRRTSDPFTCPHGRPIIIHYSTYEMEKMFKRVM

Protein production, not failed:
MAINIIEYNRSYKEELIEFILSIQKNEFNIKIDRDDQPDLENIEHNYLNSGGQFWLAINNHQNIVGTIGLIRLDNNMSALKKMFVDKGYRNLKIGKKLLDKVIMTCKEQNIDGIYLGTIDKFISAQYFYSNNGFREIKRGDLPSSFPKLDVDNRFYYRNLKD, MAKGDVITLNFETFVDSDTQVKVTRLTPTDVICHRNYFYQKCFTQDGKKLLFAGDFDGNRNYYLLNLETQQAVQLTEGKGDNTFGGFISTDERAFFYVKNELNLMKVDLETLEEQVIYTVDEEWKGYGTWVANSDCTKLVGIEILKRDWQPLTSWEKFAEFYHTNPTCRLIKVDIETGELEVIHQDTAWLGHPIYRPFDDSTVGFCHEGPHDLVDARMWLVNEDGSNVRKIKEHAEGESCTHEFWIPDGSAMAYVSYFKGQTDRVIYKANPETLENEEVMVMPPCSHLMSNFDGSLMVGDGCDAPVDVADADSYNIENDPFLYVLNTKAKSAQKLCKHSTSWDVLDGDRQITHPHPSFTPNDDGVLFTSDFEGVPAIYIADVPESYKHLEHHHHHH, MAKHEQILVLDPPSDLKFKGPFTDVVTTNLKLQNPSDRKVCFKVKTTAPRRYCVRPNSGIIDPGSIVTVSVMLQPFDYDPNEKSKHKFMVQTIFAPPNISDMEAVWKEAKPDELMDSKLRCVFEMPNENDKLND, MAKHRLDALLVERGLCPSRQQAQRLIRAGEVRVAQAIVDKPGSLVAEDAVIEVAAKPPYVSRGGEKLAKALATFPIALSDRICLDAGISTGGFTDCLLQAGASKVYGIDVGYGQVDWKIRTDPRVLLRERTNIRNLQPTDLYGSDDVWPDLAVADLSFISLTKVLLTLGQLLRSPRELILLVKPQFEVGREKVGKGGVVRDRKDHVTAIAQVLESAQGLGWHGQGLTWSPLLGPAGNVEYLLWLSEAETTWAGDRAAIEALTTEAIATLRAGLEHHHHHH, MAKITVGTENQAPIEIYYEDHGTGKPVVLIHGWPLSGRSWEYQVPALVEAGYRVITYDRRGFGKSSQPWEGYEYDTFTSDLHQLLEQLELQNVTLVGFSMGGGEVARYISTYGTDRIEKVVFAGAVPPYLYKSEDHPEGALDDATIETFKSGVINDRLAFLDEFTKGFFAAGDRTDLVSESFRLYNWDIAAGASPKGTLDCITAFSKTDFRKDLEKFNIPTLIIHGDSDATVPFEYSGKLTHEAIPNSKVALIKGGPHGLNATHAKEFNEALLLFLKD, MAKKKKEILFCDYYEDWVETYKVGAIEDVTLNKYYVAARQLRDICPKLLMSDFSRKDYQLIMNEYGKTHEKQTAKDFHHHIKAAILDAYHDGLLKSDPTYRAVIKGKEPGKKKLEHHHHHH, MAKKRSKLEIIQAILEACKSGSPKTRIMYGANLSYALTGRYIKMLMDLEIIRQEGKQYMLTKKGEELLEDIRKFNEMRKNMDQLKEKINSVLSIRQ

— a protein production outcome set (Wang et al. 2014)
